The values that follow come from US20200399311A1.

Sequences and labels used below:
B1: Short chain peptide Seq. ID. No. 19 (SIP-Bip(OMe)-NLERITPC) (peptide)
peptide: SIP[Bip(OMe)]NLERITPC
B2: Short chain peptide Seq. ID. No. 6 (SIPWNLE-Har-ITPC) (peptide)
peptide: SIPWNLE[hArg]ITPC
B3: Short chain peptide Seq. ID. No. 12 (SIPWNLE-Cit-ITPC) (peptide)
peptide: SIPWNLE[Cit]ITPC
B4: Short chain peptide Seq. ID. No. 14 (Aib-…) (peptide)
peptide: [Aib]IPWNLERITPC
B5: Short chain peptide Seq. ID. No. 7 (SIPWN-Nle-ERITPC) (peptide)
peptide: SIPWN[Nle]ERITPC
B6: Short chain peptide Seq. ID. No. 18 (SIP-APPA-NLERITPC) (peptide)
peptide: SIP[APPA]NLERITPC
modifications: reading uncertain
B7: Short chain peptide Seq. ID. No. 4 (SIPWNLER-Nle-TPC) (peptide)
peptide: SIPWNLER[Nle]TPC
B8: Short chain peptide Seq. ID. No. 13 (…-Aib-PC) (peptide)
peptide: SIPWNLERI[Aib]PC
B9: Short chain peptide Seq. ID. No. 5 (SIPWNLER-Aib-TPC) (peptide)
peptide: SIPWNLER[Aib]TPC
B10: Short chain peptide Seq. ID. No. 8 (SI-Hyp-…) (peptide)
peptide: SI[Hyp]WNLERITPC
B11: Short chain peptide Seq. ID. No. 15 (S-(N-Me-Ile)-…) (peptide)
peptide: S[NMeI]IPWNLERITPC
B12: Short chain peptide Seq. ID. No. 10 (SIPWN-Aib-ERITPC) (peptide)
peptide: SIPWN[Aib]ERITPC

Non-standard residues stand in square brackets, D forms with d. No end group written: not given here. Hyp = O=C(O)[C@@H]1C[C@@H](O)CN1; NMeI = CC[C@H](C)[C@H](NC)C(=O)O; hArg = N=C(N)NCCCC[C@H](N)C(=O)O; Cit = NC(=O)NCCC[C@H](N)C(=O)O; Nle = CCCC[C@H](N)C(=O)O; APPA = not defined here; Aib = CC(C)(N)C(=O)O

Purified recombinant human PCSK9 (His-tagged, BPS Biosciences) (human), sequence (Q8NBP7 31-692 limits assumed): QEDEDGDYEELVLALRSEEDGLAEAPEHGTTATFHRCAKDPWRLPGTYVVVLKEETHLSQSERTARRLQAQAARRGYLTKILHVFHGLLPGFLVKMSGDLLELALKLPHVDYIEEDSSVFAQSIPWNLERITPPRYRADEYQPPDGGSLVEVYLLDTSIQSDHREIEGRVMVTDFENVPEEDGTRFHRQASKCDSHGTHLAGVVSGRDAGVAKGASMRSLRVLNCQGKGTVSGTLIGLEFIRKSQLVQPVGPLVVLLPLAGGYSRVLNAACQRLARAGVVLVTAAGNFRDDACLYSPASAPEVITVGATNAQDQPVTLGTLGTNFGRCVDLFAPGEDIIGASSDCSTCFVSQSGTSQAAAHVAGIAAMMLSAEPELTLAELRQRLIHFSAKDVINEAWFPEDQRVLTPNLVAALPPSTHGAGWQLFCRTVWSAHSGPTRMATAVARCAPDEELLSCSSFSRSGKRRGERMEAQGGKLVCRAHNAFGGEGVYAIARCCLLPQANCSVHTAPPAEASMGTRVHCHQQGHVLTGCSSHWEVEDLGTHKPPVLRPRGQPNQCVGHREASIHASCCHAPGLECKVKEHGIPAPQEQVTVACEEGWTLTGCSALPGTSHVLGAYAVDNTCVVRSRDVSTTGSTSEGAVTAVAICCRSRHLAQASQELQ

One test has as its target Purified recombinant human PCSK9 (His-tagged, BPS Biosciences) (human) (UniProt Q8NBP7). The test can be described thus: SPR (Biacore T200), PCSK9 amine-coupled on chip, peptide at 50 µM.
Take B1: the Binding - Response Unit (RU) came to 35.1 RU.

As to B2, the Binding - Response Unit (RU) was determined as 6.55 RU.

With B3, the Binding - Response Unit (RU) came out at 3.1 RU.

For the molecule B4, the Binding - Response Unit (RU) was found to be 7.1 RU.

As for B5, the Binding - Response Unit (RU) came out at 6.65 RU.

As to B6, the Binding - Response Unit (RU) came to 10.2 RU.

For the molecule B7, the Binding - Response Unit (RU) stood at 13.1 RU.

Take B8: the Binding - Response Unit (RU) was 9.75 RU.

On to B9, for which the Binding - Response Unit (RU) was determined as 2.3 RU.

B10: the Binding - Response Unit (RU) was determined as 5.7 RU.

On to B11, for which the Binding - Response Unit (RU) was 11.4 RU.

Take B12: the Binding - Response Unit (RU) came to 3 RU.

For a further test the target is unchanged. The test can be described thus: SPR (Biacore T200), PCSK9 amine-coupled on chip, peptide at 100 µM.
Turning to B1, the Binding - Response Unit (RU) turned out to be 85.9 RU.

B2: the Binding - Response Unit (RU) was 17.5 RU.

Regarding B3, the Binding - Response Unit (RU) came out at 6.7 RU.

In the case of B4, the Binding - Response Unit (RU) turned out to be 15 RU.

Consider B5, for which the Binding - Response Unit (RU) was 16 RU.

Take B6: the Binding - Response Unit (RU) came to 17.9 RU.

As for B7, the Binding - Response Unit (RU) was found to be 30 RU.

For the molecule B8, the Binding - Response Unit (RU) came out at 37.4 RU.

As for B9, the Binding - Response Unit (RU) was 7.1 RU.

As for B10, the Binding - Response Unit (RU) was 13.2 RU.

For B11, the Binding - Response Unit (RU) came out at 29.9 RU.

As for B12, the Binding - Response Unit (RU) came out at 7.5 RU.
